Data published in the supplement of paper PMC7125110.
± gives the standard error. For some assays here: This sample holds only a part of the variants without activity.

B1: glmS ribozyme (parent)
chain: AUAAAAGCGCCAGAACUACAGAAAUGUAGUUGACGAGGAGGAGGUUUAUCGAAUUUUCGGCGGAUGCCUCCAAA

Experiments:
Details in all cases: with glucosamine-6-phosphate
glucosamine-6-phosphate [1] = variants of: B1; experiment: kcat; higher = faster cleavage; RNA array
Outline: (§1)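 The measurements used barcoded ribozyme variants on sequenced MiSeq chips, transcribed in situ by E. coli RNA polymerase and tracked at 37 °C with a hybridised Cy3 probe. Glucosamine-6-phosphate, 40 μM to 10 mM in HEPES/KCl/Mg(OAc)2 buffer, was flowed in while tiles were imaged over ~14 h. Baseline-normalised signals, also normalised to non-cleaving reference variants, gave per-tile medians that were fit to one- or two-exponential decays for kobs. kcat and KM resulted from weighted Michaelis–Menten fits across concentrations.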

glucosamine-6-phosphate [2] = variants of: B1; experiment: KM; higher = weaker cofactor use; RNA array
Outline: as §1

glucosamine-6-phosphate [3] = variants of: B1; experiment: self-cleavage kobs at 40 uM GlcN6P; higher = faster cleavage; RNA array
Outline: as §1

glucosamine-6-phosphate [4] = variants of: B1; experiment: self-cleavage kobs at 160 uM GlcN6P; higher = faster cleavage; RNA array
Outline: as §1

glucosamine-6-phosphate [5] = variants of: B1; experiment: self-cleavage kobs at 640 uM GlcN6P; higher = faster cleavage; RNA array
Outline: as §1

glucosamine-6-phosphate [6] = variants of: B1; experiment: self-cleavage kobs at 2500 uM GlcN6P; higher = faster cleavage; RNA array
Outline: as §1

glucosamine-6-phosphate [7] = variants of: B1; experiment: self-cleavage kobs at 10000 uM GlcN6P; higher = faster cleavage; RNA array
Outline: as §1

Variant | kcat (glucosamine-6-phosphate [1]) | KM (glucosamine-6-phosphate [2]) | self-cleavage kobs at 40 uM GlcN6P (glucosamine-6-phosphate [3]) | self-cleavage kobs at 160 uM GlcN6P (glucosamine-6-phosphate [4]) | self-cleavage kobs at 640 uM GlcN6P (glucosamine-6-phosphate [5]) | self-cleavage kobs at 2500 uM GlcN6P (glucosamine-6-phosphate [6]) | self-cleavage kobs at 10000 uM GlcN6P (glucosamine-6-phosphate [7])
U31A C50A | 1.34e-05 ± 6.2e-07 s⁻¹ | 605 ± 190 µM | < 1e-05 s⁻¹ | < 1e-05 s⁻¹ | < 1e-05 s⁻¹ |  | 
A6U U56G | 0.000121 ± 1.2e-05 s⁻¹ | 1090 ± 430 µM |  |  | 3.35e-05 ± 1.5e-05 s⁻¹ | 9.43e-05 ± 1.2e-05 s⁻¹ | 0.000104 ± 1.1e-05 s⁻¹
C16U U55C C70U | 0.000581 ± 5.6e-05 s⁻¹ | 2450 ± 440 µM |  |  | 0.000125 ± 2.7e-05 s⁻¹ | 0.000261 ± 7.6e-05 s⁻¹ | 0.000482 ± 9.6e-05 s⁻¹
G66U C71U | 0.00186 ± 0.00045 s⁻¹ | 2150 ± 760 µM | 3.7e-05 ± 8.7e-06 s⁻¹ | 0.000107 ± 1.4e-05 s⁻¹ | 0.000471 ± 4.1e-05 s⁻¹ | 0.00174 ± 0.00026 s⁻¹ | 0.0014 ± 0.00014 s⁻¹
A52G G60U | < 1e-05 s⁻¹ |  |  | < 1e-05 s⁻¹ | < 1e-05 s⁻¹ |  | 
A6G U47G | 0.0001 ± 1.3e-05 s⁻¹ | 1400 ± 520 µM | < 1e-05 s⁻¹ |  | 3.81e-05 ± 1.5e-05 s⁻¹ | 6.1e-05 ± 1.2e-05 s⁻¹ | 9.1e-05 ± 1.8e-05 s⁻¹
G29U C58A | 0.000289 ± 9.9e-05 s⁻¹ |  |  | 3.39e-05 ± 1.2e-05 s⁻¹ | 5.13e-05 ± 1e-05 s⁻¹ | 0.000103 ± 1e-05 s⁻¹ | 0.000231 ± 3e-05 s⁻¹
G63A C71A | < 1e-05 s⁻¹ |  |  |  |  |  | 
C10A G59A C68G U69C | 3.77e-05 ± 1.1e-05 s⁻¹ |  |  |  |  |  | 
A39U U47A | 0.0219 ± 0.0045 s⁻¹ | 3320 ± 900 µM | 0.000309 ± 3.8e-05 s⁻¹ | 0.000791 ± 0.00013 s⁻¹ | 0.00397 ± 0.00055 s⁻¹ | 0.00871 ± 0.0017 s⁻¹ | 0.0166 ± 0.002 s⁻¹
G41U U45C | 0.000379 ± 2.8e-05 s⁻¹ | 1140 ± 210 µM |  | 4.06e-05 ± 1.5e-05 s⁻¹ | 0.000157 ± 4e-05 s⁻¹ | 0.000273 ± 5.6e-05 s⁻¹ | 0.000331 ± 4.7e-05 s⁻¹
U30G U69G | 3.4e-05 ± 1.2e-05 s⁻¹ |  |  | 5.83e-05 ± 1.7e-05 s⁻¹ | 6.34e-05 ± 1.3e-05 s⁻¹ | 3.55e-05 ± 8.8e-06 s⁻¹ | 
G44A A53C | 0.000111 ± 2.5e-05 s⁻¹ |  |  |  | 4.9e-05 ± 2.1e-05 s⁻¹ | 5.83e-05 ± 1.3e-05 s⁻¹ | 0.0001 ± 1.9e-05 s⁻¹
A36U A39C | < 1e-05 s⁻¹ |  | < 1e-05 s⁻¹ | < 1e-05 s⁻¹ |  | < 1e-05 s⁻¹ | < 1e-05 s⁻¹
G13A C71U | 0.00103 ± 0.00012 s⁻¹ | 4730 ± 920 µM |  | 2.52e-05 ± 8.2e-06 s⁻¹ | 0.000138 ± 2e-05 s⁻¹ | 0.000358 ± 5.1e-05 s⁻¹ | 0.000698 ± 5.9e-05 s⁻¹
A53U U65G | 0.00461 ± 0.00078 s⁻¹ | 4560 ± 1200 µM | 3.59e-05 ± 7e-06 s⁻¹ | 0.000238 ± 5.5e-05 s⁻¹ | 0.000611 ± 0.00011 s⁻¹ | 0.00152 ± 0.0002 s⁻¹ | 0.00323 ± 0.00034 s⁻¹
A14G U69G | 0.000107 ± 2.2e-05 s⁻¹ |  | 8.24e-05 ± 1.9e-05 s⁻¹ | 5.73e-05 ± 1.7e-05 s⁻¹ | 0.000175 ± 3.5e-05 s⁻¹ | 0.000103 ± 2e-05 s⁻¹ | 0.000113 ± 1.8e-05 s⁻¹

Variant | kcat (glucosamine-6-phosphate [1]) | KM (glucosamine-6-phosphate [2]) | self-cleavage kobs at 40 uM GlcN6P (glucosamine-6-phosphate [3]) | self-cleavage kobs at 160 uM GlcN6P (glucosamine-6-phosphate [4]) | self-cleavage kobs at 640 uM GlcN6P (glucosamine-6-phosphate [5]) | self-cleavage kobs at 2500 uM GlcN6P (glucosamine-6-phosphate [6]) | self-cleavage kobs at 10000 uM GlcN6P (glucosamine-6-phosphate [7])
U31C A53G C70U | 0.0038 ± 0.00074 s⁻¹ | 620 ± 200 µM | 0.000212 ± 4.6e-05 s⁻¹ |  | 0.00265 ± 0.00055 s⁻¹ | 0.00272 ± 0.00079 s⁻¹ | 0.00339 ± 0.00081 s⁻¹
U46A C67U | 0.00326 ± 0.0007 s⁻¹ | 2370 ± 780 µM | 9.11e-05 ± 2.1e-05 s⁻¹ | 0.000165 ± 2.9e-05 s⁻¹ | 0.000811 ± 0.00012 s⁻¹ | 0.00173 ± 0.00027 s⁻¹ | 0.00257 ± 0.00033 s⁻¹
C16U C50A | 2.89e-05 ± 7.6e-06 s⁻¹ |  |  |  |  | 4.91e-05 ± 1.8e-05 s⁻¹ | 2.32e-05 ± 1.1e-05 s⁻¹
C50U U54G | 2.58e-05 ± 7.2e-06 s⁻¹ |  |  |  |  | 4e-05 ± 1.6e-05 s⁻¹ | 
A39U A48G | 0.000105 ± 2.3e-05 s⁻¹ |  | < 1e-05 s⁻¹ | < 1e-05 s⁻¹ |  | 6.61e-05 ± 1.5e-05 s⁻¹ | 8.13e-05 ± 1.5e-05 s⁻¹
C50G G60C U69A | 8.12e-05 ± 2.6e-05 s⁻¹ |  |  | 0.00016 ± 4.5e-05 s⁻¹ | 0.00011 ± 2.1e-05 s⁻¹ | 0.000146 ± 3.1e-05 s⁻¹ | 4.94e-05 ± 1.4e-05 s⁻¹
A52C C70U | 5.27e-05 ± 9.4e-06 s⁻¹ |  |  |  |  | 5.72e-05 ± 1e-05 s⁻¹ | 4.63e-05 ± 7.5e-06 s⁻¹
A53G U69G | 6.03e-05 ± 8.2e-06 s⁻¹ |  | 5.96e-05 ± 1e-05 s⁻¹ | 0.000101 ± 1.8e-05 s⁻¹ | 6.89e-05 ± 1.2e-05 s⁻¹ | 5.73e-05 ± 9.6e-06 s⁻¹ | 5.13e-05 ± 8e-06 s⁻¹
U57A C61G | 1.36e-05 ± 5.5e-06 s⁻¹ |  |  |  |  |  | 
U31C U65A | 0.000435 ± 5.4e-05 s⁻¹ | 2000 ± 480 µM |  | 3.17e-05 ± 1.3e-05 s⁻¹ | 0.000114 ± 1.8e-05 s⁻¹ | 0.000217 ± 3.2e-05 s⁻¹ | 0.000385 ± 5.2e-05 s⁻¹
A6U U46C | 2.4e-05 ± 7.8e-07 s⁻¹ | 2710 ± 290 µM |  | < 1e-05 s⁻¹ |  |  | 
G13A G29U | 5.33e-05 ± 7.9e-06 s⁻¹ |  |  |  |  | 4.84e-05 ± 1e-05 s⁻¹ | 4.7e-05 ± 8e-06 s⁻¹
A12U A33U C67U | 0.000242 ± 4.7e-05 s⁻¹ | 6520 ± 2600 µM |  |  |  |  | 0.000146 ± 2.9e-05 s⁻¹
A6U C61G | < 1e-05 s⁻¹ |  |  | < 1e-05 s⁻¹ | < 1e-05 s⁻¹ |  | 
G41C U49G | < 1e-05 s⁻¹ |  |  | < 1e-05 s⁻¹ |  |  | 
A15C G44A | 2.81e-05 ± 1.7e-07 s⁻¹ | 3920 ± 72 µM | < 1e-05 s⁻¹ | < 1e-05 s⁻¹ |  |  | 2.02e-05 ± 9.6e-06 s⁻¹
